The results in this text go back to patent US20080311122, “Antagonists of Hmgb1 and/or Rage and Methods of Use Thereof” (Medimmune, LLC, published 2008).

The target of series [1] is T1, HMGB1 (native, calf/bovine thymus) (Bos taurus, UniProt P10103 P10103:2-215). The series is described as follows: non-stimulatory CpG-A control sequence bound; tryptophan fluorescence. The settings on record: tags: none; purified from bovine thymus at Medimmune.
In series [2] the target is T1, HMGB1 (native, calf/bovine thymus). The series is described as follows: random DNA not bound. Particulars: tags: none; purified from bovine thymus at Medimmune.
For series [3] the target is unchanged. The series is described as follows: data not shown; p546 states conversely that HMGB1 binds both A and B class ODN. Particulars: tags: none; purified from bovine thymus at Medimmune.
Series [4] addresses T2, HMGB1 + RAGE/Fc complex (Bos taurus / Mus musculus, UniProt P10103;Q62151 P10103:2-215,Q62151:23-340).
T2 chain 1: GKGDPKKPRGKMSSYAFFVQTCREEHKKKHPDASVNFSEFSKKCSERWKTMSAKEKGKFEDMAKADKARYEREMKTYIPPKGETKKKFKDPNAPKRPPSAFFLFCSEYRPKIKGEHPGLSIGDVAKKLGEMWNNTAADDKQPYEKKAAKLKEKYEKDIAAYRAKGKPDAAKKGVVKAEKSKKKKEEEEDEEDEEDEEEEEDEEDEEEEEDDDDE
T2 chain 2: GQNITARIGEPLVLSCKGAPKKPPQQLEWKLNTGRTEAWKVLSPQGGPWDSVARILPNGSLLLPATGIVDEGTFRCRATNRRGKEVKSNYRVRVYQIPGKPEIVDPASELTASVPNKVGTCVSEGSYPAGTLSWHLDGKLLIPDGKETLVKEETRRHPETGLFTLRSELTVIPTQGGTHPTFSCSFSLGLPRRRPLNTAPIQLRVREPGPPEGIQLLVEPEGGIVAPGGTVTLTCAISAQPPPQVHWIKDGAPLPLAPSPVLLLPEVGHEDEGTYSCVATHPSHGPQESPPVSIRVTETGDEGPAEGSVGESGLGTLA
The series is described as follows: HMGB1/CpG-B complex failed to augment binding to RAGE; data not shown. The settings on record: tags: thymus HMGB1; RAGE Fc fusion (R&D Systems).

Series [5] deals with T2, HMGB1 + RAGE/Fc complex. The series is described as follows: ELISA; CpG-A associates with immobilized RAGE/Fc only when pre-complexed with HMGB1; CpG-A lowers EC50 of HMGB1-RAGE binding 100-1000 fold. The settings on record: tags: thymus HMGB1; RAGE Fc fusion (R&D Systems); label: biotin (ELISA). Here is the method:
(§1) CpG ELISA: Proteins or peptides were diluted in PBS to the concentration of 5 μg/ml and coated onto plates at 4° C. o/n. Plates were blocked with 4% dry milk in PBS. Biotin labeled CpG-A alone or in complex with HMGB1 were incubated in the plates at 37° C. for 1 hr. and detected with HRP labeled strep-avidin.

Series [6] has as its target HMGB1 B-box peptide (Homo sapiens, UniProt P09429 SEQ:1-69). The series is described as follows: affinity comparable to full-length HMGB1; data not shown; stated only as CpG DNA. The settings on record: protein: synthetic; tags: synthetic peptide, New England Peptide; label: biotin (ELISA). As to the method: as §1
Series [7] addresses T3, HMGB1 A-box peptide (Homo sapiens, UniProt P09429 SEQ:1-77).
T3 sequence: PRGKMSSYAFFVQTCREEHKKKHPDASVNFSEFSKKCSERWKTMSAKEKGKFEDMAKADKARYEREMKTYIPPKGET
Described as above. Particulars: protein: synthetic; tags: synthetic peptide, New England Peptide; label: biotin (ELISA). Here is the method:
as §1
(In general: ELISA stands for enzyme-linked immunosorbent assay.)

The target in series [8] is T1, HMGB1 (native, calf/bovine thymus). The series is described as follows: apparent Kd; intrinsic tryptophan fluorescence quench, 1.7 uM HMGB1, 1:10 DPBS, 25 C. The settings on record: tags: none; purified from bovine thymus at Medimmune; label: biotin (ELISA). As to the method:
Tryptophan emission for CpG-A binding to HMGB1: Fluorescence titrations and spectra of HMGB-1 were carried out at 25° C. with a SPEX Fluoromax-3 spectrofluorimeter, monitoring the HMGB-1 intrinsic tryptophan emission at 347 nm (8 nm bandwidth) with 280 nm excitation (3 nm bandwidth) in a masked capped dual-pathlength (0.2×1.0 cm) quartz cell (Hellma Cells, Inc., Jamaica, N.Y.) upon stepwise addition of CpG-A (0.5 mM) to a 1.7 μM solution of HMGB-1 in 1:10 Dulbecco Phosphate Buffered Saline (PBS) solution (Invitrogen, Carlsbad, Calif.). Complex formation between HMGB-1 and the nucleic acid was monitored by the change in the initial fluorescence of the protein. HMGB-1 fractional saturation was inferred from the ratio of observed fluorescence change to maximal change (at saturation), Fₗᵢₘ, for each of the nucleic acid additions. Binding affinity was calculated from graphs of relative fluorescence intensity versus [nucleic acid base]/[protein].The occluded binding site size (n) was derived from the intersection of the extrapolated initial slope with the limiting fluorescence plateau in the equilibrium binding isotherms. The measurements for assessment of Tryptophan emission are reviewed in detail in Lakowicz, 2000, Photochem. Photobiol. 72, 421-437.
The binding of immobilized HMGB1 to soluble CpG-A was determined by ELISA (FIG. 33, top left). […]

Series [9] concerns the target T4, RAGE/Fc (Mus musculus, UniProt Q62151 Q62151:23-340).
T4 chain: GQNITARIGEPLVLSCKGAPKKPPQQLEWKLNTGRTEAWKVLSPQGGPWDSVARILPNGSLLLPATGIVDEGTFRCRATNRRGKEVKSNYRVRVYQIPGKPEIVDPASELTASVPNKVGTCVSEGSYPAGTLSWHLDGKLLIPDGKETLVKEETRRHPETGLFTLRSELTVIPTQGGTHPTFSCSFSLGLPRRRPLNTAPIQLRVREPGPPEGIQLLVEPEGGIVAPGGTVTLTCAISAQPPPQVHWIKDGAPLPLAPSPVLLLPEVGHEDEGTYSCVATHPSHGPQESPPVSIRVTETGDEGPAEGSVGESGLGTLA
The series is described as follows: ELISA, CpG-A alone on immobilized RAGE/Fc. Particulars: tags: Fc fusion, R&D Systems; chain copies: 2; label: biotin (ELISA).

B1: control ODN for CpG-A (non-stimulatory) (ssDNA)
DNA: GGGGGAGCATGCTGGGGGGC
In the case of B1, the binding result in [1] was “binds”.

B2: random DNA ODN (ssDNA)
DNA: GGTCGTTCCATTTTACTCCAC
As to B2, in [2], the binding result is “no binding”.

B3: CpG-B (ODN 2006) (ssDNA)
DNA: TCGTCGTTTTGTCGTTTTGTCGTT
Consider B3, for which the binding result in series [3] and in series [4] was “no binding” each time.

B4: CpG-A (ODN2216) (ssDNA)
DNA: GGGGGACGATCGTCGGGGGG
For the molecule B4, the binding result is recorded as “binds” in [5], “binds” in series [6], “binds” in series [7] and “no binding” in series [9]. Moreover, the Kd in series [8] is 70 nM.
